Here are results for three molecules from patent US7601357B2 (priority 2005, dated 2009).

The format of data set [1] is biochemical, M. tuberculosis. Conditions: pH 8.

B1: LIPU: M. tuberculosis putative lipase/esterase gene product expressed in E. coli (protein, UniProt O53424 1-297, looked up)
Esterase LipU: MAVRPVLAVGSYLPHAPWPWGVIDQAARVLLPASTTVRAAVSLPNASAQLVRASGVLPADGTRRAVLYLHGGAFLTCGANSHGRLVELLSKFADSPVLVVDYRLIPKHSIGMALDDCHDGYRWLRLLGYEPEQIVLAGDSAGGYLALALAQRLQEVGEEPAALVAISPLLQLAKEHKQAHPNIKTDAMFPARAFDALDALVASAAARNQVDGEPEELYEPLEHITPGLPRTLIHVSGSEVLLHDAQLAAAKLAAAGVPAEVRVWPGQVHDFQVAASMLPEAIRSLRQIGEYIREATG
modifications: expressed in E. coli
As for B1, in data set [1], the TG hydrolase activity is on record as 0 nmol/mg/min.

B2: LIPY: M. tuberculosis long-chain TG hydrolase, HSL family lipase, expressed His-tagged in E. coli (protein, listed as Mycobacterium tuberculosis)
chain: EYVVAIHGGAFILPPSIFHWLNYSVTAYQTGATVQVPIYPLVQEGGTAGTVVPAMAGLSNVSVVGDSAGGNLALAAAQYMVSQGNPVPSSMVLLSPWLDVGTWQISQAWAGNLAVNLPPTYVYSGSLDPLAQQAVVLEHTAVVQGAPFSFVLAPWQIHDWILLTPWGLLSWPQINQQL
modifications: His6 tag
notes: M. tuberculosis long-chain TG hydrolase, HSL family lipase, expressed His-tagged in E. coli
Regarding B2, the “Rate of [14C]diolein hydrolysis” value (20 mM diolein emulsion) stood at 316.8 ± 9.0 nmol/mg/min. For the setting “60 days at 4° C. and 4 cycles of freezing at −20° C. followed by thawing”, the Storage stability result was “retained nearly all of its original activity”. Moreover, the “Temperature stability of lipase activity” value (held at 50° C. or higher for 15 min prior to assay) is given as “dropped off sharply”. In addition, under “phosphatidylcholine, phosphatidyl ethanolamine or hexadecyl palmitate, data not shown”, the “Fatty acid release from other substrates” value was “did not show any fatty acid release”. For the same molecule, where the note is “read-out: apparent Km, triolein, double-reciprocal plot”, the Km – broadly, the concentration of substrate that gives half-maximal velocity – turned out to be 7.57 mM. In addition, the Vmax (in general, the rate approached at saturating substrate) (triolein, double-reciprocal plot) worked out at 653.3 nmol/mg/min. In addition, in data set [1], the TG hydrolase activity is recorded as 48.6 nmol/mg/min.

B3: LIPV: M. tuberculosis putative lipase/esterase gene product expressed in E. coli (protein, UniProt L0TC47 1-261, looked up)
Lipase LipV: MIIDLHVQRYGPSGPARVLTIHGVTEHGRIWHRLAHHLPEIPIAAPDLLGHGRSPWAAPWTIDANVSALAALLDNQGDGPVVVVGHSFGGAVAMHLAAARPDQVAALVLLDPAVALDGSRVREVVDAMLASPDYLDPAEARAEKATGAWADVDPPVLDAELDEHLVALPNGRYGWRISLPAMVCYWSELARDIVLPPVGTATTLVRAVRASPAYVSDQLLAALDKRLGADFELLDFDCGHMVPQAKPTEVAAVIRSRLGPR
In data set [1], B3 gave a TG hydrolase activity of 0 nmol/mg/min.
